For orientation: EC50 means the concentration needed to bring the measured effect to its halfway point. High values mean lower potency in that assay, low ones higher potency in that assay.

Where a chain is given by its changes, count along the chain named.

B1: humanized 207F8G5-VH1.1 + VL1.1 (antibody, human IgG1, kappa, V domains shown)
VH: QVQLVQSGAEVKKPGASVKVSCKASGFTFTSYNIHWVKQAPGQGLEWMGYISPGNGGSNYNLKFKDRVTMTSDTSISTAYMELSRLRSDDTAVYFCATGRGFAYWGQGTLVTVSS
VL: DIVMTQSPDSLAVSPGERATMSCKSSQSLFNSGNQKNYLIWYQQKPGQPPKLLIYRASTRDSGVPDRFSGSGSGTDFTLTISSLQAEDVAVYYCQNDYSYPLTFGGGTKLEIKR
notes: humanized, human IgG1/kappa constant regions
B2: humanized 232C5E3-VL1.1 + VH1 (antibody, human IgG1, kappa, V domains shown)
VH: QVQLVQSGAEVKKPGASVKVSCKASGYTFTSHNIHWVRQAPGQRLEWMGYIYPGNGGTNYNQKFKARVTITRDTSASTAYMELSSLRSEDTAVYYCARDYYGNSFAYWGQGTLVTVSS
VL: B1 VL with P15L, F30L, I40T, R56W, D61E, D97G, S99R, Y100F, L102F, G106Q
notes: as for B1
B3: humanized 246B5F2-VH1.1 + VL1 (antibody, human IgG1, kappa, V domains shown)
VH: EVQLLESGGGLVQPGGSLRLSCAASEFTFSNYAMSWVRQAPGKRLEWVATISSGRSSTYYPDSVKGRFTISRDNSKNTLYLQMNSLRAEDTAVYYCAGLGRGNAMEYWGQGTLVTVSS
VL: B1 VL with P15L, M21I, S22N, F30L, I40T, R56W, D61E, D97A, L102F
notes: as for B1
B4: humanized 246B5F2-VH1.1 + VL1.1 (antibody, human IgG1, kappa, V domains shown)
VH: B3 VH
VL: B1 VL with P15L, M21I, F30L, I40T, R56W, D61E, S69T, D97A, L102F
notes: as for B1
B5: humanized 232C5E3-VL1.1 + VH1.2 (antibody, human IgG1, kappa, V domains shown)
VH: B2 VH with V37I, R38K, R72A, Y95F
VL: B1 VL with P15L, F30L, I40T, R56W, D61E, D97G, S99R, Y100F, L102F, G106Q
notes: as for B1
B6: humanized 207F8G5-VH1.3 + VL1.1 (antibody, human IgG1, kappa, V domains shown)
VH: B1 VH with K38R, M48I, V68A
VL: B1 VL
notes: as for B1
B7: humanized 207F8G5-VH1.7 + VL1 (antibody, human IgG1, kappa, V domains shown)
VH: B1 VH with M70L, F95Y
VL: B1 VL with P15L, M21I, S22N
notes: as for B1
B8: humanized 237D2A4-VH1.2 + VL1 (antibody, human IgG1, kappa, V domains shown)
VH: QVQLQESGPGLVKPSETLSLTCTVSGFSLTSYGVSWIRQPPGKGLEWIGVIWGDGSTNYHSTLISRVTISKDTSKNQVFLKLSSVTAADTAVYYCAKAGRGNALDYWGQGTLVTVSS
VL: B1 VL with P15L, M21I, S22N, F30L, I40T, R56W, D61E, Y100F
notes: as for B1
B9: humanized 246B5F2-VH1 + VL1 (antibody, human IgG1, kappa, V domains shown)
VH: B3 VH with R44G, A49S, G98K
VL: B1 VL with P15L, M21I, S22N, F30L, I40T, R56W, D61E, D97A, L102F
notes: as for B1
B10: humanized 232C5E3-VL1.1 + VH1.1 (antibody, human IgG1, kappa, V domains shown)
VH: B2 VH with M48I, V68A, R72A, Y95F
VL: B1 VL with P15L, F30L, I40T, R56W, D61E, D97G, S99R, Y100F, L102F, G106Q
notes: as for B1
B11: 430A11H9 (antibody, V domains shown)
VH: DVKLVESGGGLVKPGGSLKLSCAASGFTFSSYTMSWVRQTPEKRLEWVATISSGGSYTYYPDSVKGRFTISRDNAKNTLYLQMSSLKSEDTAMYYCTRDPGYFAYWGQGTLVTVSA
VL: DIQMTQSPASLSASVGETVTITCRASENIYSYLAWYQQKQGKSPQLLVYNAKTLAEGVPSRFSGSGSGTQFSLKINSLQPEDFGSYYCQHHYGTPYTFGGGTKLEIK
notes: mouse hybridoma mAb
B12: 419B5G9 (antibody, V domains shown)
VH: DVQLVESGGGLVQPGGSRKLSCAASGFTFSTFGMHWVRQAPEKGLEWVAYISGGSTTIFYADTVKGRFTISRDNPKNTLFLQMTSVRSEDTAMYYCARFYYGNSFAYWGPGTLVTVST
VL: DIVMTQSPSSLTVTAGEKVTMSCKSSQSLLNSGNQKNYLTWYQQKPGQPPKMLIYWASTRESGVPDRFTGSGSGTDFTLTISSVQAEDLAVYYCQNAYSYPLTFGAGTKLELK
notes: mouse hybridoma mAb
B13: 423B2B5 (antibody, V domains shown)
VH: DVQLVESGGGLVQPGGSRKLSCAASGFTFSSFGMHWVRQAPEKGLEWVAYISSGSSPIYYSDTVKGRFTISRDNPKNTLFLQMSSLRSEDTAMYFCARIYYGNSFDHWGQGTLVTVSA
VL: B12 VL with S22N, M52L, A97D
notes: mouse hybridoma mAb
B14: 370E2B12C3 (antibody, V domains shown)
VH: QVQLKESGPGLVAPSQSLSITCTVSGFSLTTYGVHWVRQPPGKGLEWLGVIWAGGSTNYNSALMSRVSINKDNSKSQVFIKMNSLQADDTALYYCARAAYYGNGLDYWGQGTTLTVSS
VL: B12 VL with S28T, M52L, R60G, Y93F, S99F, L102F, A106G, L112I
notes: mouse hybridoma mAb
B15: 418B8B10 (antibody, V domains shown)
VH: B13 VH with S61T, S84T, I99F
VL: B12 VL with T20S, L30F, S32R, N37S, K45R, M52L, A97N, S99I
notes: mouse hybridoma mAb
B16: 429H6C5 (antibody, V domains shown)
VH: DVQLVESGGGLVQPGGSRKLSCAASGFTFSSFGMHWVRQAPEKELEWVAYISSGSSTIYYAHTVKGRFTISRDNPKNTLFLRMTSLGSEDTAMYYCVRFYYGNSFVNWGQGTLVTVSA
VL: B12 VL with V13A, T69A, S99I, K109R
notes: mouse hybridoma mAb
B17: 420H3H9 (antibody, V domains shown)
VH: B16 VH with E44G, T63S, R82Q, V97A, V106A, N107Y
VL: B12 VL with M21L, V91D, S99T, K109R
notes: mouse hybridoma mAb
B18: 416F12F3 (antibody, V domains shown)
VH: B16 VH with E44G, T63S, R82Q, V97A, V106A, N107Y
VL: B12 VL with M21L, S99T, K109R
notes: mouse hybridoma mAb
B19: 423C10E1 (antibody, V domains shown)
VH: DVQLVESGGGLVQPGGSRKLSCVTSGFTFSSFGMHWVRQAPEKGLEWVAFISGGGSPIFYADSVKGRFTVSRDNPKNTLFLQMTGLRSEDTAMYFCARFYFGNSFAYWGQGTLVTVSA
VL: DIVMTQSPSSLTVTAGEKVTMNCRSSQSLFNSGNQKNYLTWYQQKPGQSPKLLIYWASTRESGVPVRFTGSGSGTDFTLTISSVQAEDLAVYYCQTSFNYPLTFGPGTKLELK
notes: mouse hybridoma mAb
B20: 420H7E6 (antibody, V domains shown)
VH: B19 VH with V37I
VL: B19 VL with T5A, S49P, S97G, N99S
notes: mouse hybridoma mAb

One test concerns the target T1, human Claudin18.2 (human).
T1 construct: also called CLDN18.2
In words: FACS, Claudin18.2-HEK293 cells. How it is done:
The binding of chimeric antibodies to Claudin18.2 expressed on HEK293 cells was determine by FACS analysis. Briefly, HEK293 cells expressing human Claudin18.2 as prepared in the foregoing Example were harvested and incubated with anti-Claudin18.2 mAbs at 4° C. for 40 min, followed by fluorophore (iFluor 647)-labeled goat […] IgG (H+L) secondary antibodies at 4° C. for 0.5 hour. The samples were then analyzed by flow cytometry.
After initial screening of cell binding with transfected supernatants, the binding pattern of chimeric and up to 3 humanized antibodies on Claudin18.2 expressed on HEK293 cells were plotted with antibody in 3× serial dilutions, starting concentration of 45 μg/ml, following the protocol described in Example 3.
(A flow cytometer gives signals particle by particle.)
As for B1, the midpoint of the response, the EC50, lay at 0.168 µg/mL and the Span turned out to be 14000.

Take B2: the concentration for a half-maximal effect (EC50) turned out to be 0.304 µg/mL and the Span worked out at 58000.

B3: it took 0.104 µg/mL to reach a half-maximal effect (EC50) and the Span was determined as 10900.

B4 came in with an EC50 of 0.283 µg/mL and a Span of 14700.

Turning to B5, the 50% effective concentration (EC50) stood at 0.212 µg/mL and the Span was 57900.

In turn, B6 had a 50% effective concentration (EC50) of 0.143 µg/mL and a Span of 13800.

In turn, B7 came in with a 50% effective concentration (EC50) of 0.145 µg/mL and a Span of 13800.

Molecule B8 showed an EC50 of 0.261 µg/mL and a Span of 15700.

With B9, the midpoint of the response, the EC50, lay at 0.16 µg/mL and the Span was 14200.

B10 returned an EC50 of 0.224 µg/mL and a Span of 54900.

In a further test the target is T1, human Claudin18.2. In words: cell ELISA, Claudin18.2-expressing HEK293T cells. An outline of the steps:
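Claudin18.2-expressing HEK293T stable cells (1.5×10⁶ cells/ml in 5% skim milk/PBS blocking buffer) were incubated 1 h at room temperature in plates pre-blocked overnight at 4° C. EC₅₀ was derived by four-parameter curve fit.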
With B11, the concentration giving a half-maximal response (EC50) was around 1.7 nM.

Consider B12, for which a half-maximal response (EC50) required 22.5 nM.

As to B13, the EC50 is 12.7 nM.

With B14, the EC50 turned out to be 0.522 nM.

As for B15, the EC50 was 3.17 nM.

In turn, B16 gave an EC50 of 13.2 nM.

On to B17, for which a half-maximal effect (EC50) was put at 20.7 nM.

B18 displayed an EC50 of 14.7 nM.

The molecule B19 yielded a concentration for a half-maximal effect (EC50) of 2.46 nM.

On to B20, for which the midpoint of the response, the EC50, lay at 2.94 nM.

Values taken from patent US20220073643A1 (NANJING GENSCRIPT BIOTECH, published 2022).
